Among the data in US20240024480A1 (MIE UNIVERSITY, published 2024) are Kd values, retold here.

The assay addresses HLA-A24 PRAMEp301-309 pMHC complex (human). As to the kind of experiment: SPR, Biacore X100, Biotin CAPture Kit; A24 PRAMEp301-309 immobilised as ligand, scFv-pp at 31.25-500 nM, global fit.

B1: #98 scFvCL-pp (scFv)
chain: QVQLVQSGAEVKKPGSSVKVSCKASGGTFSSYAISWVRQAPGQGLEWMGGIIPIFGTANYAQKFQGRVTITADESTGTAYMELSSLRSEDTAVYYCARHHSNYYYYGMDVWGQGTTVTVSRSYELTQPLSVSVALGQTARITCGGNNIGSKNVHWYQQKPGQAPVLVIYRDSNRPSGIPERFSGSNSGNTATLTISRAQAGDEADYYCQVWDSSHVFGTGTKVTVL
B1 gave a Kd of 5.3 nM.
